Results from article PMC11785957 (2025).
Where no end group is shown, it is not given here.

Target: human TLR3 ectodomain (Wuxi Biologics, C-terminal His and Avi tags) (human, UniProt O15455 24-704, biotinylated (for yeast display))
Assay: BLI

B1: minibinder 8 (designed binder)
chain: SLEEEAERVVEELVKEFNLSETQEIALRRYAEFAAKAGASEEVIEELLRRVAERLS
modifications: also: biotinylated (site not given here)
Question: B1 was tested. Which Kd did it give?
Answer: 1200 nM

B2: minibinder 7 (designed binder)
chain: SAMERYVKVLLRTAELAREAGDPEDVRKALEKAELVARILHNEELKEEIREVEEEL
modifications: also: biotinylated (site not given here)
Question: How did the Kd turn out when B2 was run?
Answer: 440 nM
